Values quoted from earlier work as cited in paper PMC2947981.
Where “and” joins values, the source holds several entries; their conditions need not be identical. Equal entries are not always repeated. Where two headings read alike, the source gives them in different places. Blank lines part the entries; values can stand above or below the substance they belong to.

Legend:
[1] = molecular target: Factor IXa (Homo sapiens) (UniProt P00740)
[2] = molecular target: Factor IXa (Homo sapiens) (UniProt P00740); remark: listed apart in the source
[3] = molecular target: Factor IXa (Homo sapiens) (UniProt P00740); remark: listed apart in the source
[4] = molecular target: Factor VIIIa2 A2 (Homo sapiens) (UniProt P00451)
TFPI (Homo sapiens) [5] = molecular target: TFPI (Homo sapiens) (UniProt P10646)
Sequence of UniProt P10646 (P10646 29-304): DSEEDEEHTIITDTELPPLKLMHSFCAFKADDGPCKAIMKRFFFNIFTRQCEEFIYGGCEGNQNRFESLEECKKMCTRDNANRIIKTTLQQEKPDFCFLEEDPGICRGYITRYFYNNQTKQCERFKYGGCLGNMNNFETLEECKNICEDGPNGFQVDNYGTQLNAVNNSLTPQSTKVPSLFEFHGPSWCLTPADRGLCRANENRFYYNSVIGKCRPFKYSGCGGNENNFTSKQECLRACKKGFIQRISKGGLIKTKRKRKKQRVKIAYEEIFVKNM

TFPI (Homo sapiens) [6] = molecular target: TFPI (Homo sapiens) (UniProt P10646); remark: listed apart in the source
Factor Va (Homo sapiens) [7] = molecular target: Factor Va (Homo sapiens) (UniProt P12259)
Sequence of UniProt P12259 (P12259 29-737, chain 1 of 2): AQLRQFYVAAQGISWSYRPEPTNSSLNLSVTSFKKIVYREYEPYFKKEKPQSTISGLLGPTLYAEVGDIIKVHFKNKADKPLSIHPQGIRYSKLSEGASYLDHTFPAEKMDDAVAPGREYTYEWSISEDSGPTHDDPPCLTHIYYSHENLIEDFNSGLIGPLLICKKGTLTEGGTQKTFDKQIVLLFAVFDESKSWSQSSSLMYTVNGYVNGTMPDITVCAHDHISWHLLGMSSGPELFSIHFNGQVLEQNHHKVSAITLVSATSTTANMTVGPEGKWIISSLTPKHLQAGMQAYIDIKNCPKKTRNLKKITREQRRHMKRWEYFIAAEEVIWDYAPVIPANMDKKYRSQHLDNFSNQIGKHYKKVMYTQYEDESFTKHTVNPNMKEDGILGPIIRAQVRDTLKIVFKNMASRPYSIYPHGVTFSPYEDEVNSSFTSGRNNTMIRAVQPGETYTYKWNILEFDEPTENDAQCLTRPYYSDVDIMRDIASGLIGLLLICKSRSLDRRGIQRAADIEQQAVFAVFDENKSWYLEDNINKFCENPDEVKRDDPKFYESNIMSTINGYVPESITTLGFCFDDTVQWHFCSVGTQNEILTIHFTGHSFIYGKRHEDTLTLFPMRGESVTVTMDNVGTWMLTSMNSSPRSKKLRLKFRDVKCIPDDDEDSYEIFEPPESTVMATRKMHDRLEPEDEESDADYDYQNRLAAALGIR
Sequence of UniProt P12259 (P12259 1574-2224, chain 2 of 2): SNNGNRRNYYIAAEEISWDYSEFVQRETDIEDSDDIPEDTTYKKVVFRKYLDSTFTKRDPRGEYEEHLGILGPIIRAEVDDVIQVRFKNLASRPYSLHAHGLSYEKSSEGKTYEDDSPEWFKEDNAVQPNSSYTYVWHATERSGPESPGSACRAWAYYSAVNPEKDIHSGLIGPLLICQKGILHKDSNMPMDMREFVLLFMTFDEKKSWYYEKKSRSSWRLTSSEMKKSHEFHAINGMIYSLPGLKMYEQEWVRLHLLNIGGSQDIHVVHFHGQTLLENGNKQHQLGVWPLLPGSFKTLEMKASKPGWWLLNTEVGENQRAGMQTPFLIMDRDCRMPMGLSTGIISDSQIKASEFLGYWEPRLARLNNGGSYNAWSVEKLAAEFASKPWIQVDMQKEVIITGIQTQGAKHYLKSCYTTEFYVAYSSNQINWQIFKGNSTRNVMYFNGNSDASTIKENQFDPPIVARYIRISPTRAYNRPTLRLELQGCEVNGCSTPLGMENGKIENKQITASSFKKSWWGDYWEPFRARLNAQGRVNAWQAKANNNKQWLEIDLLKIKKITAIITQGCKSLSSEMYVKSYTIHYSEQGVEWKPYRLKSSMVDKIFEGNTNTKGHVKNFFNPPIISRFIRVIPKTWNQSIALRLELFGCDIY

Factor Va (Homo sapiens) [8] = molecular target: Factor Va (Homo sapiens) (UniProt P12259); remark: listed apart in the source
TFPI (Homo sapiens) [9] = molecular target: TFPI (Homo sapiens) (UniProt P10646); remark: listed apart in the source
TFPI (Homo sapiens) [10] = molecular target: TFPI (Homo sapiens) (UniProt P10646); remark: listed apart in the source
[11] = molecular target: Factor VIIIa A2 A2 (Homo sapiens) (UniProt P00451)
Factor Xa (Homo sapiens) = Factor Xa (Homo sapiens) (UniProt P00742)
[12] = molecular target: Thrombin (IIa) (Homo sapiens) (UniProt P00734)
[13] = molecular target: Factor VIIIa (Homo sapiens) (UniProt P00451)
[14] = molecular target: Factor VIIIa (Homo sapiens) (UniProt P00451); remark: listed apart in the source
[15] = molecular target: Factor VIIIa (Homo sapiens) (UniProt P00451); remark: listed apart in the source
[16] = molecular target: Factor VIIIa (Homo sapiens) (UniProt P00451); remark: listed apart in the source
[17] = molecular target: Factor VIIa (Homo sapiens) (UniProt P08709)
Sequence of UniProt P08709 (P08709 61-212, chain 1 of 2): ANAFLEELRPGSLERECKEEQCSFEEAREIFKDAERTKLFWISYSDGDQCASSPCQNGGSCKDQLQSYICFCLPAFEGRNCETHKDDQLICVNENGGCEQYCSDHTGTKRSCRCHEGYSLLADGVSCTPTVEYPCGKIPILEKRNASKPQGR
Sequence of UniProt P08709 (P08709 213-466, chain 2 of 2): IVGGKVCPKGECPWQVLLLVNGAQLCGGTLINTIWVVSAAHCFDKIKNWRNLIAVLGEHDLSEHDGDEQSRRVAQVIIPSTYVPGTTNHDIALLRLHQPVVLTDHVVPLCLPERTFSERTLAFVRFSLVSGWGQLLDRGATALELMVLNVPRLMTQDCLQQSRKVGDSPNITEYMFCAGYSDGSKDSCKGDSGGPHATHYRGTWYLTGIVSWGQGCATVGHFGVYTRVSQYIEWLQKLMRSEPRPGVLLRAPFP

[18] = molecular target: Corn trypsin inhibitor (CTI) (Zea mays) (UniProt P01088)
Sequence of UniProt P01088 (P01088 29-138): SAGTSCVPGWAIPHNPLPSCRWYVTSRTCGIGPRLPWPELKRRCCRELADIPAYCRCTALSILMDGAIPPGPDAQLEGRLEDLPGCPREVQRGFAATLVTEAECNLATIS

Sequence of Factor VIIIa (P00451 1668-2351): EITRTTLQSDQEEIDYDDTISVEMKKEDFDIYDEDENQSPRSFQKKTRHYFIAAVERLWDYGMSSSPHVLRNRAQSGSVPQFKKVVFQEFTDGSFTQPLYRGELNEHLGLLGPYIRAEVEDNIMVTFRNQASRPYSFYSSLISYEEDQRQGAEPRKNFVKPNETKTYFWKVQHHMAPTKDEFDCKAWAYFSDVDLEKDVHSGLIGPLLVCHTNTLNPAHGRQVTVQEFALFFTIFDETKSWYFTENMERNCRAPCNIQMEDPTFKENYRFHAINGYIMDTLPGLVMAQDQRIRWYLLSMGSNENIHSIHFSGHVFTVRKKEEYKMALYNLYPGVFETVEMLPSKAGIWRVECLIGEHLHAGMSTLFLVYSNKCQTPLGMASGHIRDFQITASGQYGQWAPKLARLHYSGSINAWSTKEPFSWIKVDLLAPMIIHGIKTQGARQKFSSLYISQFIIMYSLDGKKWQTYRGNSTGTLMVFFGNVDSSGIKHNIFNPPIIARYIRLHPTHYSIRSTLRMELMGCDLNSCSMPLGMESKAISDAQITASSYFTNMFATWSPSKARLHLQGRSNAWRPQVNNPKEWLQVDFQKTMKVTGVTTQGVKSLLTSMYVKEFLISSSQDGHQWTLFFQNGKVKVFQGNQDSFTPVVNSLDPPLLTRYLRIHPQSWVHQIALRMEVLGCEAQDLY

Kd [1]: 4 nM
Kd [2]: 0.55 nM
Kd [3]: 0.074 nM
Substance: Factor VIIIa (from UniProt P00451)

Kd [4]: 270 nM
Substance: Factor VIIIa1-L A1-L (from UniProt P00451)

Kd (TFPI (Homo sapiens) [5]): 0.4 nM
Ki (TFPI (Homo sapiens) [6]): 0.0652 nM
Kd (Factor Va (Homo sapiens) [7]): 3.3 nM and 0.5 nM
Kd (Factor Va (Homo sapiens) [8]): 0.03 nM
Ki (TFPI (Homo sapiens) [9]): 0.0852 nM
Substance: Factor Xa (from UniProt P00742)

Kd (TFPI (Homo sapiens) [10]): 0.00034 nM
Substance: TF-VIIa-Xa complex (from UniProt P13726)

Kd [11]: 260 nM
Substance: Factor VIIIa A1/A3-C1-C2 A1/A3-C1-C2 (from UniProt P00451)

Kd (Factor Xa (Homo sapiens)): 860 nM
Substance: TF-VIIa complex (from UniProt P13726)

Kd [12]: 10000 nM
Substance: Fibrin II (Fbn2) (from UniProt P02671)

Kd [13]: 0.074 nM
Kd [14]: 4 nM
Kd [15]: 351 nM
Kd [16]: 0.55 nM
Substance: Factor IXa (from UniProt P00740)

Kd [17]: 20 nM
Substance: GP1bα (from UniProt P07359)

Ki [18]: 24 nM
Substance: Factor XIIa (from UniProt P00748)
